From patent publication US20090318342A1, “Compounds” (IMPERIAL INNOVATIONS LIMITED, published 2009)

Experiments:
gelatinase A (MMP-2) = gelatinase A (MMP-2) (Homo sapiens (Human), UniProt P08253); assay: enzyme inhibition kinetics, Ki(app), as in Example 1
[1] = target: full-length collagenase 1 (MMP-1) (Homo sapiens (Human), UniProt P03956); assay: as above
ADAMTS-5 = target: T1, ADAMTS-5 (Homo sapiens (Human), UniProt Q9UNA0); assay: GST-IGD-FLAG substrate assay, Ki(app)
T1 sequence: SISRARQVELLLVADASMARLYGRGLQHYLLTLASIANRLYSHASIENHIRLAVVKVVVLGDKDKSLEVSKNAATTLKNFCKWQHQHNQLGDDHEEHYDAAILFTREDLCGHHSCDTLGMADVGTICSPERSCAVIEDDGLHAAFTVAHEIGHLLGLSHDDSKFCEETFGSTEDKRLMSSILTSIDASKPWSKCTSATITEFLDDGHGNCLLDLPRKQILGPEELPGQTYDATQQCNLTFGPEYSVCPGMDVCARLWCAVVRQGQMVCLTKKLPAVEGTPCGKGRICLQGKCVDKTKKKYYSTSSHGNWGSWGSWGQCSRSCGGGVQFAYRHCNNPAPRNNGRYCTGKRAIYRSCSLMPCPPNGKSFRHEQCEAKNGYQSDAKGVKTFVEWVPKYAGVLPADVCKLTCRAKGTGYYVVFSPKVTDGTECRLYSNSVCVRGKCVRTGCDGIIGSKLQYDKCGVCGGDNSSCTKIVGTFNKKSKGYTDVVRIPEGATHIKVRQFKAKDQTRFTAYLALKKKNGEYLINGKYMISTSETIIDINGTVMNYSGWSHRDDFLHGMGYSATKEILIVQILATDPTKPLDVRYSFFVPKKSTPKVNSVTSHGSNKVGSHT
Experimental: (§1) Aggrecanase assays were carried out in 50 mM Tris HCl pH 7.5, 150 mM NaCl, 10 mM CaCl₂, 0.02% NaN₃, 0.05% Brij-35 at 37° C. When N-TIMP-3 was used, the inhibitor was preincubated with the enzyme for 1 hour. Reaction volumes were a total of 10 μl, consisting of 5 μl of GST-IGD-FLAG substrate (34 μM), and 5 μl of ADAMTS-4 or ADAMTS-5 (2 nM) with or without inhibitor. Enzyme amounts and incubation times were as indicated. Enzyme reactions were stopped at appropriate time points with the addition of 10 μl 2×SDS-PAGE samples loading buffer containing 20 mM EDTA. Reactions were then applied to a 10% SDS-PAGE analysis. Proteins were stained using Coomassie Brilliant Blue R-250. The stained gels were then scanned using a scanning densitometer (Biorad GS-710, Hemel Hempstead, UK) and the band intensity of the product (17 kDa) quantified using the 1D Phoretix quantification software (Nonlinear Dynamics, Newcastle upon Tyne, UK). Background subtraction was done using the rolling ball method, and band intensity expressed as pixel volumes.

[2] = target: T2, ADAMTS-4 (as used in Example 4; form not stated) (Homo sapiens (Human), UniProt O75173); assay: GST-IGD-FLAG substrate assay, Ki(app)
T2 sequence: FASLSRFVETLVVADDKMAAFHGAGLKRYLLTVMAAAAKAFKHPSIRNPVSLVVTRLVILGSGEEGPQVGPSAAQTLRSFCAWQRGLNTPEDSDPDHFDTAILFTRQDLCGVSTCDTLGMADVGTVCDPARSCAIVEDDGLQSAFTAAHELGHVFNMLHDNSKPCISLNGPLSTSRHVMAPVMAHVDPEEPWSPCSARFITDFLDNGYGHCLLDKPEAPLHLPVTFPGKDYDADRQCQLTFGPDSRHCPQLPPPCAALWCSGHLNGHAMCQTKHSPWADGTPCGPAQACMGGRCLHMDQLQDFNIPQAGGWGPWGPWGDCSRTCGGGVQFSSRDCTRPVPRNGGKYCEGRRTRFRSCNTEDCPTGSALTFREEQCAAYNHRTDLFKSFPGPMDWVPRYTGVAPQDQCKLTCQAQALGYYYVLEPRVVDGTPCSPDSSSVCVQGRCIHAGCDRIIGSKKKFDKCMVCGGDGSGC
Experimental: as §1

B1: (-2A)N-TIMP-3 (other)
chain: AACTCSPSHPQDAFCNSDIVIRAKVVGKKLVKEGPFGTLVYTIKQMKMYRGFTKMPHVQYIHTEASESLCGLKLEVNKYQYLLTGRVYDGKMYTGLCNFVERWDQLTLSQRKGLNYRYHLGCN
In the case of B1, the Ki (gelatinase A (MMP-2)) is reported as greater than 250 nM, the Ki [1] is reported as greater than 500 nM and the Ki (ADAMTS-5) is reported as 1.4 nM. It also gave a Ki [2] of 67 nM.
